The results in this text go back to PMC9881156, “POT-3 preferentially binds the terminal DNA-repeat on the telomeric G-overhang”.

The target in data set [1] is T1, POT-2 (Caenorhabditis elegans, UniProt O45595 1-251).
T1 sequence: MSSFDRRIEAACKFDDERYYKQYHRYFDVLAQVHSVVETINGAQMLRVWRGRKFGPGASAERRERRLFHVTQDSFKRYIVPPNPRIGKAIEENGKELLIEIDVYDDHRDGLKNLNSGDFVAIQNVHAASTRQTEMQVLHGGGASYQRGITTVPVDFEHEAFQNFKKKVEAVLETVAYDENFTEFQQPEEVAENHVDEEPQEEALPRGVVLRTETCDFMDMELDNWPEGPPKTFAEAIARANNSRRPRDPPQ
Description: EMSA. The following applies: apparent, EMSA: 20 mM Tris-HCl pH 8.0, 50 mM NaCl, 1 mM MgCl2, 5 mM DTT, 50 ug/ml BSA, 4% Ficoll 400, on ice 10 min, competition and S4 Kd: same salts with 0.001% …. (Mobility shift assays separate free from complexed probe on a gel.)

In data set [2] the target is T2, POT-3 (Caenorhabditis elegans, UniProt G5EFG7 1-215).
T2 sequence: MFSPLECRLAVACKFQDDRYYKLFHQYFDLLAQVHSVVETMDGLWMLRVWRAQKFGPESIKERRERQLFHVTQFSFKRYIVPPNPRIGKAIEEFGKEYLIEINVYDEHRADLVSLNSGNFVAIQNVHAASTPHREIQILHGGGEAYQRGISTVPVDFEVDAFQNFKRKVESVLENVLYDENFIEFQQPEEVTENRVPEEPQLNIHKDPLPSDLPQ
Description: EMSA. The note with it: apparent, EMSA: 20 mM Tris-HCl pH 8.0, 50 mM NaCl, 1 mM MgCl2, 5 mM DTT, 50 ug/ml BSA, 4% Ficoll 400, on ice 10 min, competition and S4 Kd: same salts with 0.001% ….

The target of data set [3] is T1, POT-2. Briefly: analytical gel filtration; 3 proteins per DNA; 500 mM NaCl; EMSA: 20 mM Tris-HCl pH 8.0, 50 mM NaCl, 1 mM MgCl2, 5 mM DTT, 50 ug/ml BSA, 4% Ficoll 400, on ice 10 min; competition and S4 Kd: same salts with 0.001% Tween-20, room temperature; gel filtration: 20 mM Tris-HCl pH 8.0, 500 mM NaCl, 10 mM DTT, 10% glycerol (binding). The following applies: protein: recombinant; tags: 6xHis.

Data set [4] deals with T2, POT-3. The data set is described as above. The following applies: protein: recombinant; tags: 6xHis.
The target in data set [5] is T1, POT-2. Description: analytical gel filtration; 1 protein per DNA; 500 mM NaCl; EMSA: 20 mM Tris-HCl pH 8.0, 50 mM NaCl, 1 mM MgCl2, 5 mM DTT, 50 ug/ml BSA, 4% Ficoll 400, on ice 10 min; competition and S4 Kd: same salts with 0.001% Tween-20, room temperature; gel filtration: 20 mM Tris-HCl pH 8.0, 500 mM NaCl, 10 mM DTT, 10% glycerol (binding). The following applies: protein: recombinant; tags: 6xHis.

In data set [6] the target is T2, POT-3. Described as above. The note with it: protein: recombinant; tags: 6xHis.

As to “fragment 7 / 12mer, (TTAGGC)2 3' overhang”, the Kd in the data set with POT-2 [1] (on ice) amounted to 0.1 nM; with POT-2 [1] (room temperature), 7.2 nM; with POT-3 [2] (on ice), 0.16 nM; with POT-3 [2] (room temperature), 5 nM.
Turning to TTAGGCTTAGGCTTAGGCTTAGGC (ssDNA) [(TTAGGC)4 ssDNA], the binding result with POT-2 [3] and with POT-3 [4] was “binds” each time.
As for TTAGGCTTAGGC (ssDNA) [(TTAGGC)2 ssDNA], the binding result with POT-2 [5] and with POT-3 [6] was “binds” throughout.
